Results on one molecule are retold here after article PMC10721843.

In the test the target is T1, Human full-length TOP2B (topoisomerase II beta) (human), Q02880.
T1 chain: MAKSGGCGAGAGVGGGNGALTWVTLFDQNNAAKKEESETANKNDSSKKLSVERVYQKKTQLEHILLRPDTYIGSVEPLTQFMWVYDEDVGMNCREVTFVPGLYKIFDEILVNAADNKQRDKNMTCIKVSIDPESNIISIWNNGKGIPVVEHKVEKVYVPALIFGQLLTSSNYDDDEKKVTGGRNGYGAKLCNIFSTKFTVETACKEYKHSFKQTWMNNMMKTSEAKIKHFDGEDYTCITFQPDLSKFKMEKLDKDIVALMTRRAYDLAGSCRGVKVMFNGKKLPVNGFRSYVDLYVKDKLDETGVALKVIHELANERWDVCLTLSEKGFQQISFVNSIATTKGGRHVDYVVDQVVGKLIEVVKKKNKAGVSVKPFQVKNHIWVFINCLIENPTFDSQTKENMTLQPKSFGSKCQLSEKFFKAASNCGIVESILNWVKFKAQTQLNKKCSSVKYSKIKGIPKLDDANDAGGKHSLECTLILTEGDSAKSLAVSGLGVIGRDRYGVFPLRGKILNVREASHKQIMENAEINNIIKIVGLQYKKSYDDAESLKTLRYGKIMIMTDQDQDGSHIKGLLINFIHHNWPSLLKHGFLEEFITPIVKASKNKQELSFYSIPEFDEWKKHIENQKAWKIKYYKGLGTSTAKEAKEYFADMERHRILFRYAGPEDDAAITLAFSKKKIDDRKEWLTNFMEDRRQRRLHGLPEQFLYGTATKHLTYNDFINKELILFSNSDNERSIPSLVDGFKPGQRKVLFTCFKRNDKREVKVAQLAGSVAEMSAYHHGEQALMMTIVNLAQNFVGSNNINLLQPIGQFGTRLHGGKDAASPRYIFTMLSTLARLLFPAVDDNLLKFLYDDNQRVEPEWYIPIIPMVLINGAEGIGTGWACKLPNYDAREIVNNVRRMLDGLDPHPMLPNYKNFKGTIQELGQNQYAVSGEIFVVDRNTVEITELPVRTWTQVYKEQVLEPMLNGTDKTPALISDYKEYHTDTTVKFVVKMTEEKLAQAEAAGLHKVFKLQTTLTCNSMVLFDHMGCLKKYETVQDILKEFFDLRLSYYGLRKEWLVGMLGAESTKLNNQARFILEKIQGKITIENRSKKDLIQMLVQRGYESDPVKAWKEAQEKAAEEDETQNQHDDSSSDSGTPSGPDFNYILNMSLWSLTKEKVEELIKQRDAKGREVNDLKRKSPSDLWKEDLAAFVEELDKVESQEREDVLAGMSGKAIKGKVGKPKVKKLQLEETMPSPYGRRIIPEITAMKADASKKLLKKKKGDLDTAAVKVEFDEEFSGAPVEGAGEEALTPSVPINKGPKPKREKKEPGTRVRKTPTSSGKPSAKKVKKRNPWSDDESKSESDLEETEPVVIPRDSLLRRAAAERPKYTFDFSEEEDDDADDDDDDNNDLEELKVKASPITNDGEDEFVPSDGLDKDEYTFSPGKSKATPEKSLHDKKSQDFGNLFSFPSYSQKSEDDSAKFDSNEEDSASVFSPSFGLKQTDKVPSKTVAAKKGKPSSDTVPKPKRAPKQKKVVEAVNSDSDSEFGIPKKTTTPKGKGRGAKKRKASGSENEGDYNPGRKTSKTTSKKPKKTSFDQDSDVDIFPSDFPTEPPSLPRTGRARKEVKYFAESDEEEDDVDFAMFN
Put plainly: cryo-EM structure; 8.3 uM TOP2B, 16.7 uM EGR1 TSS dsDNA (50 bp, -30 to +20) and 1.67 uM etoposide in 20 mM HEPES pH 8.0, 5 mM KCl, 5 mM MgCl2, 0.5 mM ATP; C2 symmetry imposed in 3D refinement (also reconstructed without it). The conditions noted are these: remark: other sources report otherwise.

As usually defined, the stoichiometry N is a count of units in the complex or per binding partner.

B1: Human full-length TOP2B (topoisomerase II beta), Q02880 1-1626 (enzyme)
chain: MAKSGGCGAGAGVGGGNGALTWVTLFDQNNAAKKEESETANKNDSSKKLSVERVYQKKTQLEHILLRPDTYIGSVEPLTQFMWVYDEDVGMNCREVTFVPGLYKIFDEILVNAADNKQRDKNMTCIKVSIDPESNIISIWNNGKGIPVVEHKVEKVYVPALIFGQLLTSSNYDDDEKKVTGGRNGYGAKLCNIFSTKFTVETACKEYKHSFKQTWMNNMMKTSEAKIKHFDGEDYTCITFQPDLSKFKMEKLDKDIVALMTRRAYDLAGSCRGVKVMFNGKKLPVNGFRSYVDLYVKDKLDETGVALKVIHELANERWDVCLTLSEKGFQQISFVNSIATTKGGRHVDYVVDQVVGKLIEVVKKKNKAGVSVKPFQVKNHIWVFINCLIENPTFDSQTKENMTLQPKSFGSKCQLSEKFFKAASNCGIVESILNWVKFKAQTQLNKKCSSVKYSKIKGIPKLDDANDAGGKHSLECTLILTEGDSAKSLAVSGLGVIGRDRYGVFPLRGKILNVREASHKQIMENAEINNIIKIVGLQYKKSYDDAESLKTLRYGKIMIMTDQDQDGSHIKGLLINFIHHNWPSLLKHGFLEEFITPIVKASKNKQELSFYSIPEFDEWKKHIENQKAWKIKYYKGLGTSTAKEAKEYFADMERHRILFRYAGPEDDAAITLAFSKKKIDDRKEWLTNFMEDRRQRRLHGLPEQFLYGTATKHLTYNDFINKELILFSNSDNERSIPSLVDGFKPGQRKVLFTCFKRNDKREVKVAQLAGSVAEMSAYHHGEQALMMTIVNLAQNFVGSNNINLLQPIGQFGTRLHGGKDAASPRYIFTMLSTLARLLFPAVDDNLLKFLYDDNQRVEPEWYIPIIPMVLINGAEGIGTGWACKLPNYDAREIVNNVRRMLDGLDPHPMLPNYKNFKGTIQELGQNQYAVSGEIFVVDRNTVEITELPVRTWTQVYKEQVLEPMLNGTDKTPALISDYKEYHTDTTVKFVVKMTEEKLAQAEAAGLHKVFKLQTTLTCNSMVLFDHMGCLKKYETVQDILKEFFDLRLSYYGLRKEWLVGMLGAESTKLNNQARFILEKIQGKITIENRSKKDLIQMLVQRGYESDPVKAWKEAQEKAAEEDETQNQHDDSSSDSGTPSGPDFNYILNMSLWSLTKEKVEELIKQRDAKGREVNDLKRKSPSDLWKEDLAAFVEELDKVESQEREDVLAGMSGKAIKGKVGKPKVKKLQLEETMPSPYGRRIIPEITAMKADASKKLLKKKKGDLDTAAVKVEFDEEFSGAPVEGAGEEALTPSVPINKGPKPKREKKEPGTRVRKTPTSSGKPSAKKVKKRNPWSDDESKSESDLEETEPVVIPRDSLLRRAAAERPKYTFDFSEEEDDDADDDDDDNNDLEELKVKASPITNDGEDEFVPSDGLDKDEYTFSPGKSKATPEKSLHDKKSQDFGNLFSFPSYSQKSEDDSAKFDSNEEDSASVFSPSFGLKQTDKVPSKTVAAKKGKPSSDTVPKPKRAPKQKKVVEAVNSDSDSEFGIPKKTTTPKGKGRGAKKRKASGSENEGDYNPGRKTSKTTSKKPKKTSFDQDSDVDIFPSDFPTEPPSLPRTGRARKEVKYFAESDEEEDDVDFAMFN
For B1, the stoichiometry N was found to be 2.
